6 substances from patent US20060211075 can be followed below.

The subject of data set [1] is peptide 23, Dap-substituted pyrene derivative at Y+3.
Data set [2] deals with peptide 25, Dab-modified pyrene analogue at Y-2.

Chain of FynT (chain, as listed by the source): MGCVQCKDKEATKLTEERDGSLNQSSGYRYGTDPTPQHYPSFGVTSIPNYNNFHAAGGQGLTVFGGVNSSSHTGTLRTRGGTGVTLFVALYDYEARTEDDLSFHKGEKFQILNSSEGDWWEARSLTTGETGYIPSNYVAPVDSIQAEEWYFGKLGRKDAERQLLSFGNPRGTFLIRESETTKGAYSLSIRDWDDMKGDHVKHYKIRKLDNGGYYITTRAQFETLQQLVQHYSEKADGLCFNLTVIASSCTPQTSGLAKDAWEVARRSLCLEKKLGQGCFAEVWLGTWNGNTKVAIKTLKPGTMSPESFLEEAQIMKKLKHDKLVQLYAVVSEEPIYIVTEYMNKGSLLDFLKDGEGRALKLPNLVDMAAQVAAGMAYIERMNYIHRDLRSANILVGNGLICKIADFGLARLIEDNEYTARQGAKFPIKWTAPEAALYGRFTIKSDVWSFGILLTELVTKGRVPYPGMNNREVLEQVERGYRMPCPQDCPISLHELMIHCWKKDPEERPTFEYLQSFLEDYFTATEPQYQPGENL
Chain of Yes (chain, as listed by the source): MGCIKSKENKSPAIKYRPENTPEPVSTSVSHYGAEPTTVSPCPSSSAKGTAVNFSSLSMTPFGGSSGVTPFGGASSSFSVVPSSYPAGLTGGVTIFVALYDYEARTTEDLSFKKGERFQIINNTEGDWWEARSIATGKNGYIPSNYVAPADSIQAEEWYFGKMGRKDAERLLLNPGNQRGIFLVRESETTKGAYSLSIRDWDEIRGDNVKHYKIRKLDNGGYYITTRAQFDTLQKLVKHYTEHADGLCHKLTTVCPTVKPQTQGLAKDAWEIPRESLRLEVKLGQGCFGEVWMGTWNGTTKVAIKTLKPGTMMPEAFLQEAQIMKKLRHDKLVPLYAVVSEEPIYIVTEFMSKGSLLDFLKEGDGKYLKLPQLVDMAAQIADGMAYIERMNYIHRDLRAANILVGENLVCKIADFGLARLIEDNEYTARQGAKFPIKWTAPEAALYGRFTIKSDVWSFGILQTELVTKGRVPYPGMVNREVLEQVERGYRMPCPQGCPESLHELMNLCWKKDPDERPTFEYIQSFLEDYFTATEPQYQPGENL
Chain of TrkA (chain, as listed by the source): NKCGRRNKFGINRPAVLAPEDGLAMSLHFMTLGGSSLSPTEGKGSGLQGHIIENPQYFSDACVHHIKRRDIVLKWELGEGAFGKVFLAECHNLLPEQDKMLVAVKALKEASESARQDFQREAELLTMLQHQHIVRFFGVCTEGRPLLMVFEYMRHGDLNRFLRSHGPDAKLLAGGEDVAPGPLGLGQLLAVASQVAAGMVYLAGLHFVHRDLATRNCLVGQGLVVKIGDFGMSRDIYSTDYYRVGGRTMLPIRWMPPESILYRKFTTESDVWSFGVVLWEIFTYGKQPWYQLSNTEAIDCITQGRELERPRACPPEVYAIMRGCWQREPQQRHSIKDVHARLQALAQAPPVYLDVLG

The Km is the substrate concentration at which the rate is half of its maximum. By Vmax is commonly meant the top rate of the reaction or transport when substrate is in excess. In the case of TrkA, in data set [1], the Michaelis-Menten constant (Km) was determined as 350 µM and the maximum rate (Vmax) was 1.1 µmol/min/mg.

For the substance FynT, in data set [1], the Km was found to be 69 µM and the Vmax worked out at 0.24 µmol/min/mg.

Take Fgr: in data set [1], the Km came out at 54 µM and the Vmax was determined as 2.3 µmol/min/mg.

Consider Yes, for which, in data set [1], the Km came out at 37 µM and the Vmax stood at 3.3 µmol/min/mg.

For LynA, in data set [2], the Km was found to be 43 µM and the Vmax is 2.6 µmol/min/mg. Further, in data set [1], the Km worked out at 140 µM and the Vmax is 2.6 µmol/min/mg.

On to EGF, for which the “phosphorylation of the peptide (fluorescence)” value in data set [2] and in data set [1] was “unable to effectively catalyze the phosphorylation of either 23 or 25” in each case.
